The results in this text go back to patent US20150037304.

Test in all cases: cell_activity
In series [1] the test system is ZFN SBS#25191 (HLA-A3) (synthetic construct). The conditions noted are these: HEK293, Surveyor assay; ZFN identity (pair 25191/25190) inferred from Table 1.
Series [2] deals with ZFN SBS#18881 (ZFN-R, HLA-A2) (synthetic construct). To be noted: pair with 18889, EL/KK FokI, primary T cells, 2.5 ug each mRNA; 19% at 37C and up to 57% with 30C cold shock without EL/KK.
Series [3] relates to ZFN SBS#18889 (ZFN-L, HLA-A2) (synthetic construct). The conditions noted are these: pair with 18881, EL/KK FokI, primary T cells, 2.5 ug each mRNA; 19% at 37C and up to 57% with 30C cold shock without EL/KK; Table 2 prints AGG where listing ….
The test system of series [4] is ZFN SBS#25190 (HLA-A3) (synthetic construct). To be noted: HEK293, Surveyor assay; ZFN identity (pair 25191/25190) inferred from Table 1.

For “ATGGAGCCGCGGGCGCCGTGGATAGAGC (double strand) [HLA-A3 target site of 25191]”, the activity (% modified HLA-A3 alleles) in series [1] was 10.
Regarding “TTATCTGGATGGTGTGAGAACCTGGCCC (double strand) [HLA-A2 target site of 18881]”, the activity (% HLA-A2 negative cells) in series [2] came to 52.
Consider “GTATGGCTGCGACGTGGGGTCGGACGGG (double strand) [HLA-A2 target site of 18889]”, for which the activity (% HLA-A2 negative cells) in series [3] came to 52.
“CTGGCTCGCGGCGTCGCTGTCGAACCGC (double strand) [HLA-A3 target site of 25190]” returned an activity (% modified HLA-A3 alleles) in series [4] of 10.
